A value given as a limit tells only on which side of the number the result lay.

For assay [1], the target named is T1, PDGF BB (Homo sapiens (Human), UniProt P01127). Put plainly: solid-phase plate assay, displacement of bound 125I-PDGF BB by unlabeled PDGF BB. The procedure:
(§1) This fraction was then applied to Sephacryl S-200 HR (Pharmacia) equilibrated in 0.15M ammonium bicarbonate pH 7.9. The fractions containing receptor (3–10 ng/μl) were detected by SDS-PAGE and Western blotting with a polyclonal rabbit antibody, made by standard methods, against a Domain 1 (D1) segment from the receptor external region. These fractions (3–10 ng/μl) were used to coat the microtiter wells as described above. The wells were then drained, rinsed once with 200 μl each of 0.5% gelatin (BioRad, EIA grade), 25 mM Hepes, 100 mM NaCl, pH 7.4, and incubated for 1–2 h at 24° C. with 150 μl of this same solution. The wells were drained and rinsed twice with 0.3% gelatin, 25 mM Hepes, 100 mM NaCl, pH 7.4 (150 μl each). […] The bound radioactivity remaining was solubilized from the wells in 200 μl 1% SDS, 0.5% BSA, and counted in a gamma-counter. The nonspecific binding was determined in the presence of a 150-fold excess of unlabeled PDGF BB (Amgen) and was about 7% of the total bound ^125I-PDGF.
(§2) Using iodinated PDGF-BB, the specific binding of less than 10 pg of ligand can be detected in an assay volume of […]. […] The nonspecific binding, determined in the presence of a […] of cold PDGF BB, was usually only about 5–10% of the total binding.

The target in assay [2] is T1, PDGF BB. Nature of the assay: competition: soluble receptor fragment against its immobilized form for binding 125I-PDGF BB. How it is done: as §1, §2
Assay [3] deals with T1, PDGF BB. Put plainly: solid-phase plate assay, 125I-PDGF BB bound after 4 h at 4° C., dissociation in buffer. The procedure:
as §1, §2

Assay [4] addresses T1, PDGF BB. Nature of the assay: solid-phase plate assay at 4° C., 125I-PDGF BB on the receptor fragment coated on polystyrene wells, Scatchard analysis. The procedure: as §1, §2

B1: extracellular region fragment of the type B human PDGF receptor (soluble, PΔ1 construct, D1-D2-D3-D4-D5) (receptor)
chain: LVVTPPGPELVLNVSSTFVLTCSGSAPVVWERMSQEPPQEMAKAQDGTFSSVLTLTNLTGLDTGEYFCTHNDSRGLETDERKRLYIFVPDPTVGFLPNDAEELFIFLTEITEITIPCRVTDPQLVVTLHEKKGDVALPVPYDHQRGFSGIFEDRSYICKTTIGDREVDSDAYYVYRLQVSSINVSVNAVQTVVRQGENITLMCIVIGNDVVNFEWTYPRKESGRLVEPVTDFLLDMPYHIRSILHIPSAELEDSGTYTCNVTESVNDHQDEKAINITVVESGYVRLLGEVGTLQFAELHRSRTLQVVFEAYPPPTVLWFKDNRTLGDSSAGEIALSTRNVSETRYVSELTLVRVKVAEAGHYTMRAFHEDAEVQLSFQLQINVPVRVLELSESHPDSGEQTVRCRGRGMPQPNIIWSACRDLKRCPRELPPTLLGNSSEEESQLETNVTYWEEEQEFEVVSTLRLQH
As for B1, in the assay with PDGF BB [1], the “t1/2 of displacement by 150-fold excess of unlabeled PDGF BB” value was less than 1 h. Also, in the assay with PDGF BB [2], the half-inhibitory concentration (IC50) (commonly the midpoint of a concentration-inhibition curve) stood at 5 nM. Also, in the assay with PDGF BB [3], the “t1/2 of dissociation in binding buffer” value is greater than 6 h. Besides, in the assay with PDGF BB [4], the Kd (usually a measure of binding affinity in units of concentration) was roughly 1 nM.

The record behind these values is patent US5686572, “Domains of extracellular region of human platelet derived growth factor receptor polypeptides” (Cor Therapeutics, Inc., dated 1997).
